Values quoted from earlier work, collected in publication PMC4437577.

Target: PR-B (Homo sapiens) (UniProt P06401)
Assay: analytical ultracentrifugation

For PR-B (from UniProt P06401), the Kd is given as 8.8 µM.
